Columns and labels:
[1] = target: RILPL2 RH1-cc (Homo sapiens) (UniProt Q969X0); experiment: ITC; conditions: cited from earlier work
[2] = target: the molecule itself; experiment: SEC-MALS; Superdex 200 10/300 GL increase, 20 mM Hepes pH 7.5, 200 mM NaCl, 0.5 ml/min; oligomeric state of the fragment
[3] = target: the molecule itself; experiment: AUC; sedimentation velocity with fluorescence detection (SV-FDS), 20 °C, 50,000 rpm; dilution series of Blue-NHS-labelled fragment (RH1-LZI 460 nM to 1.1 nM; LZI 770 nM to 2.4 nM; above 60 nM mixed with unlabelled protein); dimer to monomers
[4] = target: T1, human myosin 5a globular tail domain (GTD; residues 1463-1855) (human, UniProt Q9Y4I1 1463-1855); experiment: MST; 25 nM Blue-NHS-labelled JIP3 fragment, myo5a-GTD titrated (16 1:1 dilutions); 20 mM hepes pH 7.5, 150 mM NaCl, 2 mM MgCl2, 0.5 mM TCEP, 0.05% tween; 25 °C; three independent replicates; conditions: both partners purified
T1 construct: myosin 5a (myo5a), human, globular tail domain, residues 1463-1855; pProEx HTB vector with N-terminal 6x Histidine tag and a rTEV cleavage site; the methods describe no cleavage step; also called myo5a-GTD; myo5A-GTD; source: E. coli Rosetta, purified (His-Trap, Superdex 75 gel filtration)

[5] = target: T1, human myosin 5a globular tail domain …; experiment: AUC; sedimentation velocity, absorbance at 280 nm, 20 °C, 42000 rpm; 20 mM Hepes pH 7.5, 150 mM NaCl, 2 mM MgCl2, 1 mM TCEP; mixtures 22.5 uM JIP3-RH1-LZI + 7.5 uM myo5a-GTD and 7.5 uM JIP3-RH1-LZI + 22.5 uM myo5a-GTD; conditions: both partners purified

T1 sequence (Q9Y4I1 1463-1855): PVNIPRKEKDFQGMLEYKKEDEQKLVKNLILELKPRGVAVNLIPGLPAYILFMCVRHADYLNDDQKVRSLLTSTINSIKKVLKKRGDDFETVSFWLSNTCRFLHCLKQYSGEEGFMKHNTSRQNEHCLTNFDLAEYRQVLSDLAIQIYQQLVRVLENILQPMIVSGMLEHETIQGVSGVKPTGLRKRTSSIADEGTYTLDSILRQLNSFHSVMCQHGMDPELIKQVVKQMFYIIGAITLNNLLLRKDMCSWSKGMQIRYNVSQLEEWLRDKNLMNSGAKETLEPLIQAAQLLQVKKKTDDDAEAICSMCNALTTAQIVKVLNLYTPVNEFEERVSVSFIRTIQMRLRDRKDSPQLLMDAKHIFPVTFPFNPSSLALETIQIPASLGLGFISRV
RILPL2 RH1-cc (Homo sapiens), sequence (Q969X0 1-97): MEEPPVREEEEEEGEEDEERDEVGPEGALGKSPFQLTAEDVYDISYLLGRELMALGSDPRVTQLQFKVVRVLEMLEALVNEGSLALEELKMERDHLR

## myosin Va GTD (from UniProt Q9Y4I1)
[1]
  Kd: 300 nM

B1: LZI fragment of JIP3 (residues 71-187) (domain or fragment, mouse, UniProt Q9ESN9-1 71-187, looked up)
chain: SENQEHEVELELLREDNEQLLTQYEREKALRKQAEEKFIEFEDALEQEKKELQIQVEHYEFQTRQLELKAKNYADQISRLEERESEMKKEYNALHQRHTEMIQTYVEHIERSKMQQV
modifications: labelled with Monolith NT.115 Protein Labelling Kit BLUE NHS in the SV-FDS experiments only
notes: also called JIP3-LZI; LZ1 fragment; not shown: His-thioredoxin, N-terminal, cleaved
[2]
  stoichiometry N: 2
[3]
  Kd: 110 nM

B2: RH1-lz3 fragment of JIP3 (residues 22-100) (domain or fragment, mouse, UniProt Q9ESN9-1 22-100, looked up)
chain: GSVMSERVSGLAGSIYREFERLIHCYDEEVVKELMPLVVNVLENLDSVLSENQEHEVELELLREDNEQLLTQYEREKAL
modifications: labelled with Protein Labeling Kit Blue-NHS in the MST experiment only
notes: cloned, expressed and purified similarly as the other JIP3 fragments, which are of mouse JIP3 NP_038959.2; also called JIP3-RH1-lz3; JIP3-RH1-Lz3; source: E. coli Rosetta, purified similarly as the other JIP3/4 fragments; not shown: His-thioredoxin, N-terminal, cleaved
[2]
  stoichiometry N: 2
[4]
  Kd: 2200 ± 500 nM

B3: RH1-LZI fragment of JIP3 (residues 22-187) (domain or fragment, mouse)
chain: GSHGSVMSERVSGLAGSIYREFERLIHCYDEEVVKELMPLVVNVLENLDSVLSENQEHEVELELLREDNEQLLTQYEREKALRKQAEEKFIEFEDALEQEKKELQIQVEHYEFQTRQLELKAKNYADQISRLEERESEMKKEYNALHQRHTEMIQTYVEHIERSKMQQV
modifications: labelled with Monolith NT.115 Protein Labelling Kit BLUE NHS in the SV-FDS experiments only
notes: Gly-Ser-His residues remaining after the thrombin cleavage; The construct is mouse JIP3; Results and modelling speak of human JIP3 (NP_055948.2); also called JIP3-RH1-LZI; RH1-LZI tandem of JIP3; not shown: His-thioredoxin, N-terminal, cleaved
[5]
  binding result: binds
[2]
  stoichiometry N: 2
[3]
  Kd: < 1 nM

Reference: PMC6831827, “Structural characterization of the RH1-LZI tandem of JIP3/4 highlights RH1 domains as a cytoskeletal motor-binding motif” (Scientific Reports, 2019)
